Tests used:
[1] = target: T1, plasmin (Homo sapiens, UniProt P00747); assay: Michaelis-Menten kinetics of plasmin-mediated cleavage of fluorogenic peptide substrate; format: biochemical; details: plasmin 5 nM; VHHs 1 μM, BPTI 3 nM, TXA 7.86 mg/ml; w/o ligand 51.8
T1 construct: human Lys-plasmin which is prepared from homogeneous Glu-plasminogen using uPA; purchased Haematologic Technologies, Inc. (Essex Junction, VT)
Method: Subsequently, 50 μl of the fluorogenic substrate (3.16-3,160 μM final concentration in assay buffer) was added. Substrate hydrolysis rates were monitored by kinetic measurements using the Synergy 2 microplate reader. Apparent Michaelis-Menten constants (Km) and the turn-over number (kcat) values for substrate hydrolysis were calculated from best fit values of the Michaelis-Menten equation and the catalytic efficiencies were expressed as ratios of kcat/Km.
CI, confidence interval. ^a The turnover number (kcat) was calculated using Vmax values extracted from Michaelis-Menten least squares fit.

[2] = target: T2, plasminogen (Homo sapiens, UniProt P00747); assay: Plasmin generation assay (tPA-mediated plasminogen activation, purified system); format: biochemical; details: at the assessed / higher concentrations
T2 construct: Plasma derived human Glu-plasminogen; purchased Haematologic Technologies, Inc. (plasminogen); Boehringer Ingelheim (tPA)
T2 sequence (P00747 20-810 limits assumed): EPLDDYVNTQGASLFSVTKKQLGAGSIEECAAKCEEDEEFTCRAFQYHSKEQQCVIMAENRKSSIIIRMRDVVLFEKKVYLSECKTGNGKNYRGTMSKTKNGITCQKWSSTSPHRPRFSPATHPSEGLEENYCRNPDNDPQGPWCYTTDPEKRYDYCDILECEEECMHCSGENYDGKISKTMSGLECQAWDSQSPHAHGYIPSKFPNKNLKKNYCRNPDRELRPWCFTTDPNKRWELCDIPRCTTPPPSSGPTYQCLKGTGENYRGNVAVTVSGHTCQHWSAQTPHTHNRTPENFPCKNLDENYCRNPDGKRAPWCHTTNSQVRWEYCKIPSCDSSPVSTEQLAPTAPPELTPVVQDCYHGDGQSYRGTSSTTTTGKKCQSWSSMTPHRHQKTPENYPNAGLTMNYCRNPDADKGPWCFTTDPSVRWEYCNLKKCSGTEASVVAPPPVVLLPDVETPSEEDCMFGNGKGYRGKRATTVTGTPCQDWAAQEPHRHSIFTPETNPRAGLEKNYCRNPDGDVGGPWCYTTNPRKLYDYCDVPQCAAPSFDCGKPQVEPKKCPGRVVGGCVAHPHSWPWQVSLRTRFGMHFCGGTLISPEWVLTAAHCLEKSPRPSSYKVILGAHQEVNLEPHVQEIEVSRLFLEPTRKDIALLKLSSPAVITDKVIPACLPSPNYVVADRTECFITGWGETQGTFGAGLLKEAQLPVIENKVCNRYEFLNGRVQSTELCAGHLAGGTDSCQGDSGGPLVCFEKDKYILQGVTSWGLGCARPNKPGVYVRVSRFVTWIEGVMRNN
Method: In order to assess the influence of VHHs on tPA-mediated plasminogen activation, plasminogen was preincubated with increasing concentrations of VHHs. After addition of tPA, plasmin generation was measured over time using a fluorogenic plasmin peptide substrate.
FIG. 5. Influence of VHHs on tPA-mediated plasminogen activation. […] After addition of tPA (10 nM final concentration) plasmin generation was measured over time using the fluorogenic plasmin assay. The data are presented as mean±SD of three independent measurements.
Plasminogen (50 nM) was incubated with VHHs (2 μM to 0.2 μM) for 30 min at 37° C. in assay buffer. Subsequently, 20 μl of 50 nM tPA was added to the mixture and incubated at 37° C. After 3 hours of incubation at 37° C., 50 μl of the mixture were transferred to the wells of black F16 Fluoronunc modules and after addition of 50 μl of the plasmin-specific fluorogenic substrate (800 μM) fluorescence intensities were measured at λex of 360 nm and λem of 460 nm using the Synergy 2 microplate reader.

[3] = test system: citrate-anticoagulated whole blood; assay: Rotational thrombelastometry clot lysis in tPA-spiked whole blood; format: biochemical; details: tPA-spiked whole blood
From the text: To further test the fibrinolysis-activating properties of VHHs in an ex-vivo model of hyperfibrinolysis, a whole blood based assay can be used whereat citrate-anticoagulated whole blood in the presence of VHHs is spiked with tPA and clot formation and the fibrinolysis rate of the formed clot monitored by thrombelastometry after initiation of clotting by addition of CaCl2) solution containing recombinant TF.
FIG. 4. Influence of VHHs on endogenous fibrinolysis. (A) Citrate-anticoagulated whole blood was mixed with VHHs A11 or C5 and with tPA to achieve a final concentration of 0.5 μg/ml and clot formation was induced by addition of CaCl2) (0.2 M). (B) Lysis index at 60 min(C) Maximum lysis rates, and (D) lysis onset time were recorded. Mean values and SD were calculated out of three measurements.
(§1) The impact of VHHs on the fibrinolytic activity in plasma and whole blood was monitored using rotational thrombelastometry using the ROTEM delta system (TEM Innovations Ltd., Munich, Germany). […] After addition of 0.1 μg/ml tPA, coagulation was initiated by addition of recombinant tissue factor (Dade Innovin, Siemens Healthcare, Marburg, Germany) dissolved 1:100 in calcium chloride (0.2 M). The viscoelasticity of the formed clot was measured in terms of key parameters including clotting time, maximal clot firmness, maximum clot elasticity, maximum lysis, lysis index after 60 minutes, and lysis onset time.

[4] = target: T1, plasmin; assay: Activated factor V-inactivation assay (prothrombinase assay); format: biochemical
Method: FIG. 6. (A) Influence of VHHs on plasmin-mediated FVa cleavage. Plasmin (1.5 nM) was incubated with increasing concentrations of VHHs for 30 min at 37° C. After addition of FVa (30 pM) and further incubation for 30 min, FXa (0.52 pM), prothrombin (10 nM) and a fluorogenic thrombin substrate (100 μM) were added and the FVa-dependent thrombin generation was measured. The FVa inactivation rate measured in the absence of VHHs or plasmin inhibitors was set as 100%. […] The data are presented as mean±SD of two independent measurements.
Plasmin-mediated inactivation of activated factor V (FVa) was measured using a prothrombinase assay as recently described (Hamedani 2020). Briefly, 1.5 nM plasmin in assay buffer (20 mM Tris-HCl, 137 mM NaCl, 10 mg/ml phospholipids, 5 mM CaCl2, 1 mg/ml BSA, pH 7.4) was preincubated with VHHs (0.1 nM-10 μM final concentrations) for 30 min at 37° C. Then, 60 μl of the mixture were mixed with 60 μl of […] FVa. After further incubation for 30 min, 25 μl of the reaction mixture were mixed with 50 μl of 1.3 μM human FXa and 100 μM fluorogenic thrombin substrate (Boc-Asp(OBzl)-Pro-Arg-AMC) and 50 μl of 10 nM human prothrombin. Thrombin catalyzed substrate hydrolysis was monitored at λex of 360 nm and λem of 460 nm using the Synergy 2 microplate reader.

[5] = target: T1, plasmin; assay: Stability of plasmin (autocatalytic degradation) in activation buffer; format: biochemical; details: 100 mM TXA or lysine in buffer
[6] = test system: citrate-anticoagulated pooled normal human plasma; assay: Rotational thrombelastometry clot formation parameters in plasma; format: biochemical; details: VHHs or BPTI 2.4 μM, TXA 2.4 μg/ml; tPA 0.1 μg/ml
Method: FIG. 10. The impact of VHHs on the clot formation parameters in plasma monitored by rotational thrombelastometry. […] After addition of tPA to reach a final concentration of 0.1 μg/ml, coagulation was initiated by addition of recombinant tissue factor (Dade® Innovin®) dissolved 1:100 in calcium chloride solution (0.2 M). The viscoelasticity of the formed clot was measured in terms of (A) clotting time, (B) maximum clot firmness, and (C) maximum clot elasticity. A non-binder VHH (GFP-enhancer VHH) was used as negative control. Mean values and SD were calculated out of three measurements.
as §1

[7] = target: T3, human plasmin (human, UniProt P00747 97-580; P00747 581-810); assay: cell-based or functional assay
T3 sequence (P00747 97-580 limits assumed, chain 1 of 2): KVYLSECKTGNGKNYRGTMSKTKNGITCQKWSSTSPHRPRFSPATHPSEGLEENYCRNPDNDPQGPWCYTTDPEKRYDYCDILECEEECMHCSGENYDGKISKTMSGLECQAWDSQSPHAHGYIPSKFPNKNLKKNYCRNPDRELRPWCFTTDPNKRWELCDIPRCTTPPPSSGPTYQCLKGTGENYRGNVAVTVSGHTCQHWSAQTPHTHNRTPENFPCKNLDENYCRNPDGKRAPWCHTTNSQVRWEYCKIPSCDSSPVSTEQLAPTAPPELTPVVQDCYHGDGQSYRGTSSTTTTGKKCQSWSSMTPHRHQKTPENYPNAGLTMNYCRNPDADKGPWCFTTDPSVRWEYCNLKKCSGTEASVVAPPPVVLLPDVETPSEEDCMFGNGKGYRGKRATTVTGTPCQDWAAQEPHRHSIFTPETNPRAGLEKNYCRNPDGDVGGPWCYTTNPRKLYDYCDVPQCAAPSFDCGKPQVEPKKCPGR
T3 sequence (P00747 581-810 limits assumed, chain 2 of 2): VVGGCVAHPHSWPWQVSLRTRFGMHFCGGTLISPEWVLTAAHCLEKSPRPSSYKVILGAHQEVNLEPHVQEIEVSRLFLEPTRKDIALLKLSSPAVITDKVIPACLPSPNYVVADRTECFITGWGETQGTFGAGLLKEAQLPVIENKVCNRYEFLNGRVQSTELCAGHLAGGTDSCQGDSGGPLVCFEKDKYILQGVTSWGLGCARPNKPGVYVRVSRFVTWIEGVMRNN

[8] = target: T3, human plasmin; assay: BLI (BLItz), His-tagged VHH on anti-HIS biosensor
[9] = target: T4, mouse plasminogen (mouse, UniProt P20918 20-812); assay: BLI (BLItz), His-tagged VHH on anti-HIS biosensor
T4 construct: mature; also called mouse Glu-plasminogen
T4 sequence (P20918 20-812 limits assumed): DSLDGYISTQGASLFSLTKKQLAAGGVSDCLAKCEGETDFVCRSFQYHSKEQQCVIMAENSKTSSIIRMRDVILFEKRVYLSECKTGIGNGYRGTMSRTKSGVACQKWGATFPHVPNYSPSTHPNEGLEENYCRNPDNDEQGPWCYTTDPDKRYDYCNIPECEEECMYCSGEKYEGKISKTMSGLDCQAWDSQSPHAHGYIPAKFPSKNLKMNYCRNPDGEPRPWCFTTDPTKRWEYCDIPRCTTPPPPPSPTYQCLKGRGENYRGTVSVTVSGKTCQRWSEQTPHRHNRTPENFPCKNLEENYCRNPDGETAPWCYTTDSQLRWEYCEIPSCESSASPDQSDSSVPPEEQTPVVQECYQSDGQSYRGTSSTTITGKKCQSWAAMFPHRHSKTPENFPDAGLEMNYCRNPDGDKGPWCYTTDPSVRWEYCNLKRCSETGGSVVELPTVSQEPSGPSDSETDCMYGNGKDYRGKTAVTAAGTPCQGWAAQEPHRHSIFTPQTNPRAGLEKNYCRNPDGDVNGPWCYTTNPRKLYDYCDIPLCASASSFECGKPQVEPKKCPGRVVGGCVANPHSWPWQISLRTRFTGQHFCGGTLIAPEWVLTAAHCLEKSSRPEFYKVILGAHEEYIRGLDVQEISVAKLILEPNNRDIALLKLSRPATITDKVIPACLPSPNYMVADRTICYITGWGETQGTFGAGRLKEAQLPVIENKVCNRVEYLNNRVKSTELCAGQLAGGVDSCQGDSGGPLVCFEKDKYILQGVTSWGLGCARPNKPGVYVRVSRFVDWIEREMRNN

[10] = target: T5, mouse plasmin (mouse, UniProt P20918 98-581; P20918 582-812); assay: BLI (BLItz), His-tagged VHH on anti-HIS biosensor
T5 construct: domain: heavy chain or A-chain;domain: light chain that contains the serine protease domain; Purchased from Haematologic Technologies
T5 sequence (P20918 98-581 limits assumed, chain 1 of 2): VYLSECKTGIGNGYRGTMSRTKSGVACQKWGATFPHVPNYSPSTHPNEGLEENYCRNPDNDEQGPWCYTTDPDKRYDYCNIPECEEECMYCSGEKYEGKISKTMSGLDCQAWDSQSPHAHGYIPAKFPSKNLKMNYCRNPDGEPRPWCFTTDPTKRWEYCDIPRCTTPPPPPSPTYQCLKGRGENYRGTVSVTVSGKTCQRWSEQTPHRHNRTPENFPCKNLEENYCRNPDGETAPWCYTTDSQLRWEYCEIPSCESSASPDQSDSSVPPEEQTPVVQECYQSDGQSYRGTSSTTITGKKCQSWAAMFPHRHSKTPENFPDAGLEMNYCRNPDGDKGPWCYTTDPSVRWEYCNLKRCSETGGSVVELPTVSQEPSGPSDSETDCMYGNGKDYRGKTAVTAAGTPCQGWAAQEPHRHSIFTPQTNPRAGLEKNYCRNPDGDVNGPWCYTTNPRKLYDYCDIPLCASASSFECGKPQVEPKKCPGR
T5 sequence (P20918 582-812 limits assumed, chain 2 of 2): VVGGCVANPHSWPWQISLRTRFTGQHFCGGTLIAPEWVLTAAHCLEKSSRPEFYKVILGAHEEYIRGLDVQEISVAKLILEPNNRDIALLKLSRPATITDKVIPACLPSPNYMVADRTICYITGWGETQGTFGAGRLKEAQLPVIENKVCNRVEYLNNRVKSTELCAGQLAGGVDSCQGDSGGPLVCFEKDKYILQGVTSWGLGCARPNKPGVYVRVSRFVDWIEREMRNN

[11] = target: T6, human plasminogen (human, UniProt P00747 20-810); assay: BLI (BLItz), His-tagged VHH on anti-HIS biosensor
T6 construct: mature; Purchased plasma-derived Glu-plasminogen or in-house plasma-purified plasminogen; also called human PLG; plasma derived human Glu-plasminogen
T6 sequence (P00747 20-810 limits assumed): as the sequence (P00747 20-810 limits assumed) above

[12] = target: T7, tissue plasminogen activator (recombinant tPA, Actilyse) (UniProt P00750 36-562); assay: BLI (BLItz), His-tagged VHH on anti-HIS biosensor
T7 construct: Actilyse is recombinant human tPA (alteplase)
T7 sequence (P00750 36-562 limits assumed): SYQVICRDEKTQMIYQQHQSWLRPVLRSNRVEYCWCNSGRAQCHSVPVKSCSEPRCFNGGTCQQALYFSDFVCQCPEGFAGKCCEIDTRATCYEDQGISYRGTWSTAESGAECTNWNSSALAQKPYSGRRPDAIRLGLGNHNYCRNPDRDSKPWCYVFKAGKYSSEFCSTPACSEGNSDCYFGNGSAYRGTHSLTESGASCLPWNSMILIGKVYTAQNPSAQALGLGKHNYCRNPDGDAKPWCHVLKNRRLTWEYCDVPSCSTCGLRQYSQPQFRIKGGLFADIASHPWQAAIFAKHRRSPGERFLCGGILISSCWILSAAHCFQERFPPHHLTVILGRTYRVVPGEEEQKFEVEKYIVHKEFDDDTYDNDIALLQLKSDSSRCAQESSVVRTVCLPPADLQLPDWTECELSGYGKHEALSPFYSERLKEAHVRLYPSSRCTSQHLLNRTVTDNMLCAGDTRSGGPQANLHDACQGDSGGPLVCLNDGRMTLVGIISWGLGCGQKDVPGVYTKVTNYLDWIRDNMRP

[13] = target: T3, human plasmin; assay: cell-based or functional assay; remark: listed apart in the source
[14] = target: T3, human plasmin; assay: competition ELISA: A11 coated on the plate (10 µg/ml), plasmin 10 nM with free C5 as competitor of immobilized A11; bound plasmin read by hydrolysis of a fluorogenic substrate
Method: (§2) FIG. 2. VHHs competition ELISA. […] Data represent the mean±SD of two measurements.
(§3) To assess the competition of VHHs for similar or overlapping binding sites on the plasmin molecule, a competition ELISA was performed. Microtiter (96-well) plates were coated with VHHs (10 μg/ml in coating buffer, 100 μl/well) at 2-8° C. overnight. Wells were washed and non-specific protein-binding sites were blocked with 20 mg/ml bovine serum albumine (BSA) for 2 h at RT. After removing the blocking buffer, wells were overlaid with a reaction mixture containing plasmin (10 nM) and VHHs (0.316 nM-31.6 μM) in buffer (20 mM HEPES, 154 mM NaCl, BSA 1 mg/ml, pH 7.4) for 30 min at RT. After washing the amount of bound plasmin was quantified through hydrolysis rates of the fluorogenic plasmin substrate (300 μM, 100 μl/well). The fluorescence intensity measured in the absence of free VHHs was set as 100%.

[15] = target: T3, human plasmin; assay: competition ELISA: C5 coated on the plate (10 µg/ml), plasmin 10 nM with free C5 (self-competition); bound plasmin read by hydrolysis of a fluorogenic substrate
Method: as §2, §3

[16] = target: T3, human plasmin; assay: competition ELISA: A11 coated on the plate (10 µg/ml), plasmin 10 nM with free A11 (self-competition); bound plasmin read by hydrolysis of a fluorogenic substrate
Method: as §2, §3

[17] = target: T3, human plasmin; assay: competition ELISA: C5 coated on the plate (10 µg/ml), plasmin 10 nM with free A11 as competitor of immobilized C5; bound plasmin read by hydrolysis of a fluorogenic substrate
Method: as §2, §3

[18] = target: T1, plasmin; assay: Plasmin inhibition assay (α2-AP-mediated plasmin inactivation); format: biochemical; details: α2AP alone, molar excess of α2AP over plasmin
Method: FIG. 7. Impact of VHHs binding on α2-AP-mediated plasmin inactivation. […] After 30 min of incubation, the residual activity of plasmin was measured by addition of 50 μl of the sample to 50 μl of a plasmin-specific fluorogenic substrate (400 μM). The plasmin activity in the wells in the absence of VHHs and α2AP was considered as 100% activity and relative residual plasmin activities calculated accordingly. The data are presented as mean±SD of three independent measurements.
After incubation for 30 min at 37° C., 50 μl of the mixture were transferred to the wells of black F16 Fluoronunc modules and 50 μl of plasmin-specific fluorogenic substrate (800 μM) were added and substrate hydrolysis measured at λex of 360 nm and λem of 460 nm. The plasmin activity in the reactions containing all reagents except α2-AP was set as 100%.

T1 sequence (P00747 97-580 limits assumed): as the sequence (P00747 97-580 limits assumed, chain 1 of 2) above
T1 sequence (P00747 581-810 limits assumed): as the sequence (P00747 581-810 limits assumed, chain 2 of 2) above

## NC[C@H]1CC[C@H](C(=O)O)CC1 [TXA, tranexamic acid, reference compound]
[1]
  kcat × 10^3 (s^−1) mean (95% CI): 42.1 (40-44) s^−1
[2]
  inhibition of plasmin generation at higher concentrations: plasmin generation is blocked
[3]
  effect on lysis compared to VHHs (FIG. 4C, maximum lysis rates): inhibition of lysis
[4]; TXA 316 μM or higher
  maximal rate of inhibition of plasmin-mediated cleavage of FVa: 48%
[4]; lower TXA concentrations
  FVa cleavage at lower TXA concentrations: accelerated
[5]
  protection of plasmin from autocatalytic degradation: more effective than lysine
[6]
  effect on fibrin clot formation parameters (clotting time, maximum clot firmness, maximum clot elasticity): does not affect

B1: VHH C5 including C-terminal His6-tag (VHH)
VHH: QVQLVESGGGLVQAGGSLRLSCAASGRRFMVVAMGWYRQAPGNQRELVASITNGGTTNYAGSVKGRFTISGDSAKNTVYLHMNSLKPEDTAVYYCTTDVVFRDGNGQIQSNWGQGTQVTVSS
notes: Alpaca-derived
[7]
  Kcat/Km of plasmin-mediated cleavage of fluorogenic peptide substrate, VHH 1 µM: 2.44e+08 M⁻¹ s⁻¹
  kcat of plasmin-mediated cleavage of fluorogenic peptide substrate, VHH 1 µM: 69900 s⁻¹
[8]
  Kd: 0.0068 µM
[9]
  Kd: > 1 µM
[10]
  Kd: 0.172 µM
[11]
  Kd: > 0.1 µM
[12]
  Kd: 0.213 µM
[13]
  increase in plasmin peptide substrate conversion, at molar ratio of VHH over plasmin of 500: ~2.5 fold
[14]
  IC50 (read off the curve): ~0.5 µM
[15]
  IC50 (read off the curve): ~2 µM

B2: VHH A11 including C-terminal His6-tag (VHH)
VHH: QVQLVETGGGLVQAGGSLRLSCAASGNIFSINAMDWYRQAPGKERELVAAITSGGTTNYADSVKGRFTISRDNAKDTVYLQMNSLKPEDAAFYYCNADGYYSDYDKNLAEFNSWGQGTQVTVSS
notes: Alpaca-derived
[7]
  Kcat/Km of plasmin-mediated cleavage of fluorogenic peptide substrate, VHH 1 µM: 2.28e+08 M⁻¹ s⁻¹
  kcat of plasmin-mediated cleavage of fluorogenic peptide substrate, VHH 1 µM: 67200 s⁻¹
[8]
  Kd: 0.0047 µM
[9]
  Kd: > 1 µM
[10]
  Kd: 0.0873 µM
[11]
  Kd: > 0.1 µM
[12]
  Kd: 0.941 µM
[16]
  IC50 (read off the curve): ~0.5 µM
[13]
  increase in plasmin peptide substrate conversion, at molar ratio of VHH over plasmin of 158: ~2.5 fold
[17]
  IC50 (read off the curve): ~1 µM

B3: alpha2-antiplasmin (protein)
chain: NQEQVSPLTLLKLGNQEPGGQTALKSPPGVCSRDPTPEQTHRLARAMMAFTADLFSLVAQTSTCPNLILSPLSVALALSHLALGAQNHTLQRLQQVLHAGSGPCLPHLLSRLCQDLGPGAFRLAARMYLQKGFPIKEDFLEQSEQLFGAKPVSLTGKQEDDLANINQWVKEATEGKIQEFLSGLPEDTVLLLLNAIHFQGFWRNKFDPSLTQRDSFHLDEQFTVPVEMMQARTYPLRWFLLEQPEIQVAHFPFKNNMSFVVLVPTHFEWNVSQVLANLSWDTLHPPLVWERPTKVRLPKLYLKHQMDLVATLSQLGLQELFQAPDLRGISEQSLVVSGVQHQSTLELSEVGVEAAAATSIAMSRMSLSSFSVNRPFLFFIFEDTTGLPLFVGSVRNPNPSAPRELKEQQDSPGNKDFLQSLKGFPRGDKLFGPDLKLVPPMEEDYPQFGSPK
[18]
  residual plasmin activity: < 0.1%

Source: patent US20250179215A1, “PLASMIN-BINDING VHHS” (RHEINISCHE FRIEDRICH-WILHELMS-UNIVERSITÄT BONN, priority 2022, published 2025)
